What was measured:
[1] = biological target: human transferrin receptor (TfR) (human) (UniProt P02786); test: FACS on DU145 cells, percent of cells above the fluorescence threshold
[2] = biological target: human transferrin receptor (TfR) (human) (UniProt P02786); test: indirect cellular ELISA on fixed JSQ-3 cells; highest concentration of Hb21 (100 µl), positive control
[3] = biological target: human transferrin receptor (TfR) (human) (UniProt P02786); test: FACS on JSQ-3 cells, percent of cells above the fluorescence threshold
[4] = biological target: human transferrin receptor (TfR) (human) (UniProt P02786); test: indirect cellular ELISA on fixed JSQ-3 cells, anti-His detection; 0.6 µg of protein
[5] = biological target: human transferrin receptor (TfR) (human) (UniProt P02786); test: indirect cellular ELISA on fixed JSQ-3 cells, anti-His detection
[6] = biological target: human transferrin receptor (TfR) (human) (UniProt P02786); test: indirect cellular ELISA on fixed JSQ-3 cells, anti-His detection; 3 µg of protein
[7] = biological target: human transferrin receptor (TfR) (human) (UniProt P02786); test: indirect cellular ELISA on fixed JSQ-3 cells, anti-His detection; 1.5 µg of protein

human transferrin receptor (TfR) (human), sequence (P02786 whole entry): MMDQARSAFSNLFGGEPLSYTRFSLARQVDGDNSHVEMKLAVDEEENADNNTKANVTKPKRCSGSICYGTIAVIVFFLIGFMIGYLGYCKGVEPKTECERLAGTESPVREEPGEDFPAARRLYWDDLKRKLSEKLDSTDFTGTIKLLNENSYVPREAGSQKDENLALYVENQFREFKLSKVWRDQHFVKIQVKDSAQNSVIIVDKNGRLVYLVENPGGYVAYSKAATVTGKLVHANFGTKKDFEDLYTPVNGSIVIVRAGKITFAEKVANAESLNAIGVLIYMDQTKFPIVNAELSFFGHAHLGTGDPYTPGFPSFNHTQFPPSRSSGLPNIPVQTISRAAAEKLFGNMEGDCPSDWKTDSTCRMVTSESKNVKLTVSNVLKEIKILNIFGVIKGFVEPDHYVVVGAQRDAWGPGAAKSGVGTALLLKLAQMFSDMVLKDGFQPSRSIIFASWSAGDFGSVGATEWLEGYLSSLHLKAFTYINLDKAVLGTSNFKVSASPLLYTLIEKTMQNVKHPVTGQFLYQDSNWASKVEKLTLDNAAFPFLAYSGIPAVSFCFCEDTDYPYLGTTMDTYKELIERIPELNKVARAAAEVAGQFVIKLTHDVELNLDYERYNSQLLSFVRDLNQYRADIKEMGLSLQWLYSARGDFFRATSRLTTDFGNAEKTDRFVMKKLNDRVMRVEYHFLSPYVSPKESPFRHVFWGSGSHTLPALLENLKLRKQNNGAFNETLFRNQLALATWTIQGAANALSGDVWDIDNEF

Substance: HB21 anti-transferrin receptor monoclonal antibody
- % Positive [1]: 98.7%
- OD490 [2]: 0.033 OD490
- % Positive [3]: 99.4%

Substance: TfRscFv containing a C-terminal cysteine, with a His tag
- OD490 [4]: 0.06 OD490
- OD490 [5]: 0.235 OD490
- OD490 [6]: 0.132 OD490
- OD490 [7]: 0.1 OD490

— US7479276
